This is an account of results in PMC8776730 (Nature Communications, 2022).

The nature of this data set: Secondary structure proportions from CD spectra. The format is physicochemical. Particulars: calculated by Reed's Reference based on CD spectra; DI water. The source says: To further evaluate the assembled structures, the corresponding circular dichroism (CD), Fourier transform infrared (FTIR) spectroscopy, and wide-angle X-ray scattering (WAXS) spectroscopy were applied. […] The FITR spectra of M1 and M3 in Fig. 3b observed the intermolecular interactions. The peaks at 1629 cm^−1, 1675 cm^−1, and 1698 cm^–1 of M3 indicated anti-parallel β-sheet structure (represent by green arrow heads), peaks at 1648 cm^−1 and 1663 cm^−1 indicated parallel beta sheet structure (represent by blue arrow heads), the existence of 1654 cm^−1 indicate α-Helix structure in M1 which verified the results deduced by CD in Fig. 3a[29],[30]. […] As a homologous sequence with amyloid β-protein (Aβ), the self-assembly motif with peptide sequence of KLVFFGCG had similar aggregation kinetics to (Aβ)42 peptide, which occurred via dynamic growth from oligomers to amyloid fibrils. The aggregation started from the freshly isolated monomers of R-M1, and precipitates were separated in 1 min and 1 h, respectively. […] After analyzed the CD spectra of M1, M3, and R-M1 (Fig. 3e), it can be clearly seen that the main secondary conformation of M1 was Random, the M3 was hybrid of Helix and Beta, and the R-M1 was Beta (Supplementary Table 1). All the results confirmed the conclusion from FTIR spectra. […] The dynamic growth procedure was like the 8-anilino-1-naphthalenesulfonic acid (ANS) stained curve (Supplementary Fig. 12). As known, ANS was sensitive to hydrophobic interaction. When R-M1 were in the initial oligomer, the fluorescence intensity of ANS increased due to the enhanced hydrophobicity. When the molecules were elongated and stacked in higher ordered nanofibrils, the blue shift of ANS in the β-sheet structures reduced the fluorescence. The molecular packing mode of well-ordered fibrils of R-M1 in Fig. 3g observed a weak reflection at 4.9 Å as laminates space and a strong broad reflection at 10.3 Å as sheet space, which was illustrated in the inserted figure. The fibril morphology was characterized by transmission electron microscopy (TEM) imaging (Fig. 3f). The statistical calculation of the fiber diameter in TEM images was 5.0 ± 0.4 nm (Supplementary Fig. 13), which was corresponded to the theoretical calculated two molecules length of R-M1. We assumed that the nanofibers were assembled by twisted R-M1 molecules centered on self-assembly motif.
The secondary structures of M1, M3 and R-M1 were verified by CD spectroscopy (JASCO Corporation, JC-1500) at room temperature with a cell path length of 1 cm. M1, […] and R-M1 were diluted to 100 μM with deionized water at 25 °C and allowed to stand for 12 h for complete assembly. Detail parameter setting were CD scale:200 mdeg/1.0Dod, measure range: 260~190 nm, scanning speed: 500 nm/min, bandwidth: 1.00 nm, and data pitch: 0.5 nm. All spectra were the average of three measurements.
Supplementary Table 1∣ Secondary structure proportions ofM1, M3 and R-M1 calculated by Reed’s Reference based on […]

Regarding mPEG-GPAKLVFFGC(IR783)GRGD [M1], the Secondary structure proportion: Beta was 32.2%, the Secondary structure proportion: Helix is 0%, the Secondary structure proportion: Random was 66.1% and the Secondary structure proportion: Turn was 1.7%.

As for “mPEG-GPAKLVFFGCGRGD [M3, the non-labeling molecule of M1 (no IR783)]”, the Secondary structure proportion: Beta is 38.7%, the Secondary structure proportion: Helix was 45%, the Secondary structure proportion: Random is 16.3% and the Secondary structure proportion: Turn is 0%.
